The target of the assay is purified bovine calmodulin (bovine, UniProt P62157 1-149). The experiment in a line: ITC. In general terms: ITC needs no label: the signal is the heat of the interaction.

B1: FBXL2 (ITC with CaM, data not shown) (natural protein)
chain: MVFSNNDEGLINKKLPKELLLRIFSFLDIVTLCRCAQISKAWNILALDGSNWQRIDLFNFQTDVEGRVVENISKRCGGFLRKLSLRGCIGVGDSSLKTFAQNCRNIEHLNLNGCTKITDSTCYSLSRFCSKLKHLDLTSCVSITNSSLKGISEGCRNLEYLNLSWCDQITKDGIEALVRGCRGLKALLLRGCTQLEDEALKHIQNYCHELVSLNLQSCSRITDEGVVQICRGCHRLQALCLSGCSNLTDASLTALGLNCPRLQILEAARCSHLTDAGFTLLARNCHELEKMDLEECILITDSTLIQLSIHCPKLQALSLSHCELITDDGILHLSNSTCGHERLRVLELDNCLLITDVALEHLENCRGLERLELYDCQQVTRAGIKRMRAQLPHVKVHAYFAPVTPPTAVAGSGQRLCRCCVIL
B1 returned a Kd of 810 nM.

Usually Kd stands for the free concentration of one partner at which half of the binding sites on the other are occupied at equilibrium, for simple one-to-one binding. Read a low Kd as a tighter complex.

(Values after publication PMC3266958 (Oncogene, 2011).)
